Data reported in the supplement of paper PMC9170038.

Test system: MS2 coat protein
Assay: apparent KD of MS2 coat protein; designed switch direction (-1 OFF switch, 1 ON switch): -1; higher = weaker reporter binding
Method in brief: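 On Illumina chips, designed RNA switches with common flanks were made by stalled E. coli RNA polymerase. Titrations with SNAP-549-labelled MS2 coat protein, doubling from 0.7 or 1.5 nM to 3 µM, were done with no input, with 200 uM small-molecule ligand, or with an oligonucleotide input. Apparent KD is the median per design over clusters, from curve fits of normalised cluster fluorescence.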

[1] = Eterna round: R95, input ligand: FMN 200 uM
[2] = Eterna round: R95, input ligand: microRNA oligo, concentration not stated
[3] = Eterna round: R95, input ligand: none
[4] = input ligand: microRNA oligo, concentration not stated

Row | Sequence | apparent KD of MS2 coat protein [1] [nM] | apparent KD of MS2 coat protein [2] [nM] | apparent KD of MS2 coat protein [3] [nM] | apparent KD of MS2 coat protein (input ligand: FMN 200 uM) [nM] | apparent KD of MS2 coat protein [4] [nM] | apparent KD of MS2 coat protein (input ligand: none) [nM]
1 | CGGAGCGUAGGUAGGUUCAACAUGAGGAUCACCCAUGUCUCACAAGCUUUUUGCUCAUCUUAUUGUACCUUGGUGCU [Sensor v3, turn-off variant 1 (MOD of JL )] (puzzle: Sensor v3, turn-off variant 1) | 117 | 37.3 | 144 | – | – | –
2 | CGGGAGGGACAAGCUUUUUGCACGUCUGUUAUUGAUGCUACAUGAGGAUCACCCAUGUUUAGGGUGUGUGAGGAUGG [JR_SV3TOV2_Sub052] (puzzle: Sensor v3, turn-off variant 2) | 437 | 239 | 571 | – | – | –
3 | CGGGCCCGGGCAGGAUAUGCGGCGGCCCGGGCCGGUGGGCCCGGGCCGACAUGAGGAUCACCCAUGUAGAAGGGCCCGGGCCCG [low energy, MS2 in another position, A 14%] (Eterna round: R96, puzzle: Exclusion NG 2) | – | – | – | 15.7 | 10.7 | 16.1
4 | CGGUGCUGAGGAUAUACAUGAGGAUCACCCAUGUGUUCUUGCUAGCGUACUGGCAGAUGUAGAAGGCGGUACUG [JL-ex3-3.45 Brourd mod] (puzzle: Exclusion 3) | 99.7 | 19.7 | 22.7 | – | – | –
5 | CGGUGUAACGUAGGAUAUCAUCGCAACUGACGUUGAGAAGGACGACAUGAGGAUCACCCAUGUGAUUUCUCAAUAUUAUACAUC [Prohibition 85 - Jieux - Exclusion NG 1] (Eterna round: R96, puzzle: Exclusion NG 1) | – | – | – | 69.6 | 20.4 | 19.6
6 | CGUACUCAAGUGAGGAUAUUGUCUCGGAUACGAAACAAGAAGGCACAUGAGGAUCACCCAUGUAGAGAGUACGA [Malc #30 mod 1] (puzzle: Brourd's mod of Exclusion 4) | – | 14.5 | – | – | – | –
7 | CGUCAACAUGAGGAUCACCCAUGUUAGGAUAUGGCGGUCCAUGGUUGGGACUAGACCGCCAGAAGGAGCAUGCG [Eternabot (L1) Solution 54] (Eterna round: R97, puzzle: Exclusion 1) | – | – | – | 71.9 | – | 86.8
8 | CGUCCUGUAGUGAGGAUAUUGUCUCGGAUACGAAACAAGAAGGCACAUGAGGAUCACCCAUGUAAUCAGGACGA [Malc #30 mod 12] (puzzle: Brourd's mod of Exclusion 4) | 14.1 | 16.1 | 13.3 | – | – | –
9 | CGUCUGUAAGGAUAUGGUUGCAUCAACAUGAGGAUCACCCAUGUAACUUGGGACUAGUGAUUAGAAGGUACGAACG [EX5 #59] (Eterna round: R97, puzzle: Exclusion 5) | – | – | – | 218 | – | 255
10 | CGUCUGUCGGAAGGAUAUGUAGGGUGUCUUUUCCUCAGUACGAAGUACAUGAGGAUCACCCAUGUACAGAAGGUCCACAAUUAA [Essosoedso] (Eterna round: R96, puzzle: Exclusion NG 2) | – | – | – | 109 | 67.9 | 75.3
11 | CGUGACUCAGGAUAUGUAUUAUAUCACAUGAGGAUCACCCAUGUCCAGCGAAAGCUGGAGGCAGAAGGGAGUCACG [Fiskers Ex 5 - 47] (puzzle: Exclusion 5) | 41.4 | 87.6 | 106 | – | – | –
12 | CUAAAUCAUGUAGGAUAUGCGUAGCGAAGCUAUGCAGAAGGACAUGAGGAUCACCCAUGUUCUUCCGUCUGCGUACAGACGGAA [Mat - Exclusion NG 1 - Mod of JL - D29] (Eterna round: R96, puzzle: Exclusion NG 1) | – | – | – | 337 | 29.1 | 38.2
13 | CUAAAUCAUGUAGGAUAUGCGUGGCAAAGCUAUGCAGAAGGACAUGAGGAUCACCCAUGUCAUUCCGUCUGCGAACAGACGGGA [Mat - Exclusion NG 1 - Mod of JL - D50] (Eterna round: R96, puzzle: Exclusion NG 1) | – | – | – | 161 | 15.4 | 20.3
14 | CUAAAUCAUGUAGGAUAUGCGUGGCGAAGCUAUGCAGAAGGACAUGAGGAUCACCCAUGUCUUUCCGUCUGCGUACAGACGGGA [JL ENG1 1.20] (Eterna round: R96, puzzle: Exclusion NG 1) | – | – | – | 151 | 14.5 | 21.2
15 | CUAAAUCAUGUAGGAUAUGCGUGGCGAAGCUAUGCAGAAGGACAUGAGGAUCACCCAUGUUCUUCCGUCUGCGUACAGACGGAA [JL ENG1 1.18] (Eterna round: R96, puzzle: Exclusion NG 1) | – | – | – | 316 | 28.7 | 38
16 | CUAAUUAGAGGAUAUACAUGAGGAUCACCCAUGUUCUUCAAGUCGCCAACGGCAUAACGUAGAAGGCUGAGUGG [Eternabot (L1) Solution 32] (Eterna round: R97, puzzle: Exclusion 3) | – | – | – | 26.4 | – | 25.8
17 | CUACUAGAGACGCGUGGGAACAUGAGGAUCACCCAUGUCAAUGGAGUUUAAACAGGCCCGUCGUUUUGCUCGUCGUG [Eternabot (L2) Solution 41] (Eterna round: R97, puzzle: Sensor, turn-off variant 1) | – | – | – | 113 | – | 132
18 | CUACUGAAGCUUUGCUUUAGUCGUACAUGAGGAUCACCCAUGUAGGAUAUGGUAGGCUUUGCUUACUAGAAGGAUAGAGUGAUC [salish99_ExNG3_r04_601] (Eterna round: R96, puzzle: Exclusion NG 3) | – | – | – | 80.9 | 38.3 | 58.1
19 | CUAGAUCUUCGGAUCUAGUACAUGAGGAUCACCCAUGUUACGAGUUGAUCCUCAUACAAGCUUUUUGCUCGUCUUAU [Sensor v3 - Turn-off variant 1 - 25] (puzzle: Sensor v3, turn-off variant 1) | 16.5 | 9.03 | 13.9 | – | – | –
20 | CUAGCGAAUGUAGGAUAUCGGACUGUUUCAGUCUGAGAAGGACAUGAGGAUCACCCAUGUAUAGCUACGUGAGUAGCACGCUAG [JL ENG1 3.90] (Eterna round: R96, puzzle: Exclusion NG 1) | – | – | – | 27.6 | 16.1 | 21.7
21 | CUAGGGCGCAUUUAAACGCCCUAACAUGAGGAUCACCCAUGUCAGGAUAUGUAGGCAAAGACCCUACAGAAGGGACAUGUCCUA [Lainceso] (Eterna round: R96, puzzle: Exclusion NG 3) | – | – | – | 264 | 57.1 | 72.7
22 | CUAUUCCGAGGAUAUACAUGAGGAUCACCCAUGUCGGGCCUCUGCGUUUAGCGCGUAAGUAGAAGGUGGGUUUC [JL Riri mod 8] (puzzle: Exclusion 3) | – | 27.1 | – | – | – | –
23 | CUAUUUUUCGCAGGAUAUGCAUCUCCUUUAUUAGCAGAAGGGCGUUAAACAUGAGGAUCACCCAUGUAUUGUGGUGCUUUUUUC [JR_ExcNG1_Sub059] (Eterna round: R96, puzzle: Exclusion NG 1) | – | – | – | 214 | 54.3 | 57.9
24 | CUCAGACAUGAGGAUCACCCAUGUCAGGAUAUCGUCUACCUGUGGAAACACAGGUAGACGAGAAGGGAUGUGUU [SS1 Omei 3 v1] (puzzle: Exclusion 1) | – | 43.5 | – | – | – | –
